Target: FITC-labeled 45-mer peptide derived from the C-terminal region of IKKβ
Experiment: fluorescence polarisation; fluorescence anisotropy binding assay with an FITC-labeled 45-mer peptide of IKKβ and bacterially expressed full-length NEMO proteins; conditions not told here (refs 13, 26)

Sequence of full-length WT NEMO (aa 1-419), bacterially expressed (Q9Y6K9 whole entry, the tested form may be a part): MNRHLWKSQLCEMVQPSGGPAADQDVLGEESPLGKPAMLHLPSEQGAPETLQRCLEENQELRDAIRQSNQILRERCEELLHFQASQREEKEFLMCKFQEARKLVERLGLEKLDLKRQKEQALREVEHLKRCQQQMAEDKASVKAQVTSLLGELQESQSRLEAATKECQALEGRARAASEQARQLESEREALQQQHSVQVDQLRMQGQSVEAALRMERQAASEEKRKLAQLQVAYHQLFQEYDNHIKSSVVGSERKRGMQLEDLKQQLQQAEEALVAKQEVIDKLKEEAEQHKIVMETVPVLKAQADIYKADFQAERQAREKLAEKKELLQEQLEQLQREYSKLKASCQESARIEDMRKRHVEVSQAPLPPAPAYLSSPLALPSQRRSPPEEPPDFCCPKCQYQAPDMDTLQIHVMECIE

| Kd [nM] | Substance |
| --- | --- |
| 33 | OPTN-IVD-NEMO (aa 1-419), bacterially expressed (from UniProt Q9Y6K9 1-419) (natural protein) |
| 4.7 | full-length WT NEMO (aa 1-419), bacterially expressed (from UniProt Q9Y6K9 1-419) (natural protein) |

From publication PMC10694592
